These results are taken from patent US20190225691A1 (SHANGHAI HENLIUS BIOTECH, published 2019).

Residue numbers refer to the chain shown, from its start. In names and notes the source's numbering stands.

One may read the Kd as a measure of binding affinity in units of concentration. As a reminder, the koff is the rate constant with which the complex falls apart. Broadly, the kon is the rate constant with which the complex forms. What is called EC50 (read off the curve) is the midpoint of the concentration-response curve.

Assay [1] deals with T1, human PD-L1 ECD-His (human, UniProt Q9NZQ7 19-238).
T1 construct: extracellular domain; Analyte in all SPR and BLI runs; also called hPD-L1_ECD-His; hPD-L1 ECD-His; not shown: His tag
T1 sequence (Q9NZQ7 19-238): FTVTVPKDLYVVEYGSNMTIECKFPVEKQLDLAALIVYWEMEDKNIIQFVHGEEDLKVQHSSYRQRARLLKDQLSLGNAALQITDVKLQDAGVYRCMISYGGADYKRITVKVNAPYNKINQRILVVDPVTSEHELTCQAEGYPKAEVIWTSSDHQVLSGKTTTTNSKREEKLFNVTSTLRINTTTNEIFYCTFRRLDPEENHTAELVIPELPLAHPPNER
Nature of the assay: SPR, 25 C, antibody captured by anti-human IgG Fc, hPD-L1-His analyte, 1:1 fit. On the procedure:
(§1) The binding affinity and kinetics were measured using surface plasmon resonance (SPR). […] Experiments were carried out at 25° C., and measurements were made with serial dilutions of hPD-L1-His from 19.1 nM to 0.71 nM passing over the captured antibodies in HBS-P+buffer supplemented with 0.1% (w/v) BSA with a flow rate of 25 μL/min. All data were analyzed with the evaluation software and curves were fit with a 1:1 Langmuir binding model. All the data are representative of two independent studies performed in duplicate.
On the technique in general: SPR reads the build-up and loss of mass on a sensor chip optically.

Assay [2] has as its target T1, human PD-L1 ECD-His. In words: SPR, ratio of KD to ref-1. On the procedure: as §1
Assay [3] has as its target T1, human PD-L1 ECD-His. Nature of the assay: SPR, ratio of KD to ref-1. This is another data set of the same source.
Assay [4] addresses T1, human PD-L1 ECD-His. Nature of the assay: SPR, hPD-L1-His, comparison of IgG isotypes of PL2#3.
Assay [5] addresses T2, human PD-L1 on cells (PHA-activated human T cells); PD-L1-transfected CHO-S cells; A375 melanoma cells; … (human, UniProt Q9NZQ7 19-290).
T2 construct: whole, on cells; also called PD-L1 expressing T cells; PD-L1 expressing CHO-S cells
Nature of the assay: flow cytometry on PHA-activated human CD3+ T cells, FITC-labeled anti-human IgG Fcγ, MFI. On the procedure: Human T cells were isolated from PBMC using MagniSortTM Human T Cell Enrichment Kit (eBioscience). Isolated T cells were activated by 5 μg/mL phytohemagglutinin (PHA) for 3 days to stimulate the PD-L1 expression. Activated T cells were collected and incubated in FACS buffer (PBS with 2% FBS) with human Fc blocker (eBioscience) for 20 minutes at 4° C. Binding of anti-PD-L1 monoclonal antibody was assessed by incubating the activated T cells with the serial-diluted antibodies in FACS buffer. The cells were washed with flow buffer and the binding was detected with a FITC-labeled rabbit anti-human IgG FcγAb. Cells were also stained with mouse anti-human CD3 PE-Cy7 (eBioscience) for gating CD3-positive T cells. Flow cytometric analyses were performed using the Cytomics FC 500 (Beckman Coulter Inc.).
(In general: In flow cytometry, cells or beads pass a laser one at a time.)

Assay [6] deals with T2, human PD-L1 on cells (PHA-activated …). Nature of the assay: flow cytometry blocking assay: PD-L1 expressing CHO-S cells incubated with antibody, then biotin-labeled PD-1-Fc and streptavidin-PE; MFI of bound PD-1. On the procedure: PD-L1 expressing CHO-S cells were suspended in FACS buffer (PBS with 4% FBS). Various concentrations of tested antibodies were added to the cell suspension (3.5E5 cells/well) and incubated at 4° C. for 30 minutes. […] The cells were washed and then stained with streptavidin-PE at 4° C. for 30 minutes. Flow cytometric analyses were performed using the Cytomics FC 500 (Beckman Coulter Inc.).
Anti-PD-L1 reference antibody and Avastin were used as the positive and negative control, respectively.

The target in assay [7] is T3, recombinant human PD-L1/Fc fusion protein (human, UniProt Q9NZQ7 19-238).
T3 construct: also called hPD-L1 ECD-Fc; not shown: Fc part
T3 sequence (Q9NZQ7 19-238 limits assumed): as the sequence (Q9NZQ7 19-238) above
Nature of the assay: ELISA: human PD-L1/Fc coated (15 ng/well), serially diluted antibody, HRP-conjugated secondary antibody, TMB, A450. On the procedure: ELISA assays were performed to assess the binding of selected antibodies to recombinant human PD-L1/Fc fusion proteins. Fifteen nanograms per well of human PD-L1/Fc proteins were coated on 96-well EIA microplate overnight at 4° C. After blocking with 5% skim milk, serially diluted antibodies were added and incubated at RT for 1 hour. The unbound antibodies were removed and wells were washed with PBST twice. The HRP-conjugated secondary antibody was added to the wells, and, following an incubation, excess secondary antibody was washed away. TMB was added to the wells, and following incubation, the reaction was stopped, and HRP activity was measured by monitoring the increase in absorbance at 450 nm.
In general terms: An ELISA detects its analyte on a solid surface through an enzyme-linked reagent.

Assay [8] concerns the target T1, human PD-L1 ECD-His. In words: SPR, 25 C, antibody captured by anti-human IgG Fc, hPD-L1_ECD-His analyte, 1:1 fit. On the procedure:
Experiments were carried out at 25° C., and measurements were made with serial dilutions of hPD-L1_ECD-His from 55.4 nM to 11.1 nM passing over the captured antibodies in HBS-P+ buffer supplemented with 0.1% (w/v) BSA with a flow rate of […]. All data were analyzed with the evaluation software and curves were fit with a 1:1 Langmuir binding model. Data are representative of two independent experiments performed in duplicate.

The target in assay [9] is T4, recombinant cynomolgus monkey PD-L1_ECD Fc-fusion protein (Sino Biological Inc.) (cynomolgus monkey, UniProt G7PSE7 19-238).
T4 construct: Bought
T4 sequence (G7PSE7 entry or part of it limits assumed): as the sequence (Q9NZQ7 19-238) above, with A33T, A34S, S62N, R68Q, Q82R, F173L, T185A, T192I, H215L counted along it
In words: ELISA: cynomolgus monkey PD-L1_ECD/Fc coated (9 ng/well), peroxidase-labeled goat anti-human IgG F(ab)'2, TMB, OD450. On the procedure: The recombinant cynomolgus monkey PD-L1_ECD Fc-fusion proteins were purchased from Sino Biological Inc. PD-L1_ECD/Fc (9 ng per well) were immobilized onto 96-well assay plat by incubating overnight at 4° C. Nonspecific binding sites were blocked using 5% skim milk in PBS for one hour at room temperature. After washing plates three times with PBST, indicated concentrations of anti-PD-L1 antibodies and HLX01 (negative control) were incubated with the immobilized proteins for one hour at room temperature. The plates were washed three times with PBST and then incubated for one hour at room temperature with peroxidase-labeled goat anti-human IgG F(ab)′2 (Jackson ImmunoResearch Laboratories) diluted 1/10,000 in PBS. After washing, plates were developed using TMB (eBioscience). The absorbance was read at the wavelength of 450 nm by Varioskan LUX microplate reader (Thermo Scientific).
HLX01 (anti-CD20 mAb) was used as the negative control.

Assay [10] has as its target T1, human PD-L1 ECD-His. Nature of the assay: BLI, ratio of KD to ref-1. On the procedure: (§2) Briefly, black 96-well plate was prepared with columns containing 200 μL/well of reagents required for determination of affinity. In general, Octet SA sensors were first placed in wells containing 1×Kinetics Buffer (PBS, 0.1% BSA, 0.02% Tween-20, pH 7.4) for 180 seconds to establish a baseline. […] Sensors were then regenerated by 3×5 second incubations in Regeneration Buffer (10 mM Glycine, pH 1.5) followed by a 5 second incubation in 1×Kinetics Buffer each time. Regeneration was repeated before measurement of each association/dissociation cycle. Sensors were then placed in fresh 1×Kinetics Buffer for 180 seconds to establish a baseline. Association was then measured by incubating the sensors for 5 minutes in wells containing hPD-L1-His followed by transferring to wells containing 1×Kinetics Buffer for 10 minutes to measure dissociation. Kinetics (ka, kd, and […] were measured by global fitting four association/dissociation cycles of data obtained from 1:3 serial dilutions of hPD-L1-His from 38.28 nM to 1.42 nM (one association/dissociation cycle for one concentration) with a 1:1 Langmuir binding model. All data were analyzed with Octet Data Analysis Software v.9.0 and representative of two independent experiments performed in duplicate.
(§3) All the data are representative of two independent experiments performed in duplicate.

For assay [11], the target named is T1, human PD-L1 ECD-His. In words: BLI Octet RED96, biotinylated antibody on SA sensor, hPD-L1-His analyte, 1:1 fit. On the procedure: as §2, §3

T2 sequence (Q9NZQ7 19-290): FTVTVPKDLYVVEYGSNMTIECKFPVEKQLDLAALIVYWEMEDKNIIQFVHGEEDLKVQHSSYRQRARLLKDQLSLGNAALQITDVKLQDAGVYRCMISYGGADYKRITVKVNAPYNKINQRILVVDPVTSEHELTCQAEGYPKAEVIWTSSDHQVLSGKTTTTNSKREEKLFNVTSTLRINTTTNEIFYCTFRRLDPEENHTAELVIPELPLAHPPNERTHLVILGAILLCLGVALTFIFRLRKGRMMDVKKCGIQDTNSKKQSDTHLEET

B1: PL2 IgG2 (antibody, V domains shown)
VH: EVQLVQSGGGLVKPGGSLRLSCAASGFTFSSYTMNWVRQAPGKGLEWVSSISSGSDYLYYADSVKGRFTISRDNAKNSLYLQMNSLRAEDTAVYYCARNELRWYPQAGAFDIWGQGTMVTVSS
VL: QSVVTQPPSMSAAPGQNVTISCSGSSSYIESSYVSWYQQLPGTAPRLLIYDDDMRPSGIPDRFSGSKSGTSATLAITGLQTGDEADYYCEIWDSGLGGVFGGGTKLTVL
With B1, in assay [1], binding was put at a Kd of 6.96 nM, the koff turned out to be 0.00217 s⁻¹ and the kon was 747000 M⁻¹ s⁻¹. Besides, the “Improvement over ref-1” value in assay [2] was 1.21 fold.

B2: PL2 IgG1 (antibody, V domains shown)
VH: B1 VH
VL: B1 VL
Turning to B2, the “Improvement over ref-1” value in [3] was found to be 0.41 fold. Moreover, in assay [4], binding was characterised by a dissociation constant (Kd) of 1.56 nM, the koff amounted to 0.00193 s⁻¹ and the association rate constant (kon) was 1.25e+06 M⁻¹ s⁻¹.

B3: PL2#3 IgG1 (antibody, V domains shown)
VH: B1 VH with I112R
VL: B1 VL with N17R, S35G, D93R
notes: Human IgG1
With B3, the “Improvement over ref-1” value in assay [3] came to 2.53 fold. Moreover, in [4], the equilibrium dissociation constant (Kd) worked out at 0.25 nM, the off-rate constant (koff) was determined as 0.000276 s⁻¹ and the kon came to 1.14e+06 M⁻¹ s⁻¹.

B4: PL2#39 IgG2 (antibody, V domains shown)
VH: B1 VH with Q106K
VL: B1 VL with N17R, E30T, E90K
notes: Human IgG2 backbone
With B4, in assay [1], the dissociation constant (Kd) amounted to 0.779 nM, the off-rate constant (koff) turned out to be 0.00143 s⁻¹ and the kon worked out at 2.04e+06 M⁻¹ s⁻¹. In [2], the “Improvement over ref-1” value worked out at 10.8 fold.

B5: PL2#4 IgG2 (antibody, V domains shown)
VH: B1 VH with Q106L
VL: B1 VL with N17R, S25V, E90K
notes: Human IgG2 backbone
For B5, in assay [1], the Kd came to 1.27 nM, the koff is 0.00099 s⁻¹ and the kon came to 882000 M⁻¹ s⁻¹. In [2], the “Improvement over ref-1” value was determined as 6.62 fold.

B6: PL2#3 IgG4 (antibody, V domains shown)
VH: B1 VH with I112R
VL: B1 VL with N17R, S35G, D93R
notes: Human IgG4
On to B6, for which the “Improvement over ref-1” value in assay [3] was determined as 2.64 fold. For the same molecule, in [4], the affinity, expressed as Kd, was 0.239 nM; the koff was found to be 0.000293 s⁻¹; the kon turned out to be 1.26e+06 M⁻¹ s⁻¹.

B7: PL2#3 IgG2 (antibody, V domains shown)
VH: B1 VH with I112R
VL: B1 VL with N17R, S35G, D93R
notes: Human IgG2 backbone
In the case of B7, in [1], the Kd was determined as 0.516 nM, the koff was 0.000557 s⁻¹ and the kon worked out at 1.32e+06 M⁻¹ s⁻¹. In addition, the “Improvement over ref-1” value in [3] was found to be 5.36 fold. Further, in [4], binding was put at a Kd of 0.118 nM, the off-rate constant (koff) was 0.000162 s⁻¹ and the on-rate (kon) worked out at 1.34e+06 M⁻¹ s⁻¹. Moreover, the “Improvement over ref-1” value in [2] stood at 16.3 fold.

B8: PL2#5 IgG2 (antibody, V domains shown)
VH: B1 VH with Q106F
VL: B1 VL with N17R, G95R
notes: Human IgG2 backbone
In assay [1], B8 registered a Kd of 3.07 nM, an off-rate constant (koff) of 0.00221 s⁻¹ and a kon of 812000 M⁻¹ s⁻¹. The “Improvement over ref-1” value in assay [2] was determined as 2.74 fold.

B9: PL12 (full-length, N297A mutant human IgG1) (antibody, V domains shown)
VH: QVQLVQSGAEVKKPGSSVKVSCKASGGTFSSYAISWVRQAPGQGLEWMGRIIPILGIANYAQKFQGRVTITADKSTSTAYMELSSLRSEDTAVYYCARGIGSYSFGAFDIWGQGTMVTVSS
VL: QSVLTQPPSVSGAPGQRVTISCTRSSSNIGAGHDVHWYQQLPGTAPKLLIYGNSNRPSGVPDRFSGSKSGTSASLAITGLQAEDGADYYCQSYDSSLTGVVFGGGTKLTVLG
On to B9, for which, in assay [5], the “EC50 (read off the curve)” value is ~0.03 µg/mL. Besides, the “IC50 (read off the curve)” value in assay [6] is ~0.2 µg/mL. Further, in assay [7], the concentration giving a half-maximal response (EC50 (read off the curve)) is ~0.03 µg/mL. In [8], this molecule came in with a Kd of 6.68 nM, a koff of 0.00267 s⁻¹ and a kon of 416000 M⁻¹ s⁻¹.

B10: PL1 (full-length, N297A mutant human IgG1) (antibody, V domains shown)
VH: QIQLVQSGAEVKKPGSSVKVSCKASGGTFSSYAISWVRQAPGQGLEWMGRIIPILGIANYAQKFQGRVTITAGESTSTAYMELSSLRSEDTAVYYCAREGSSGWLGVLDYWGQGTLVTVSS
VL: B9 VL with S2A, P8S, R24G, I29V, H33Y, G85E, T98S, V100W
Take B10: the “IC50 (read off the curve)” value in [6] was ~0.02 µg/mL. The 50% effective concentration (EC50 (read off the curve)) in assay [7] was ~0.004 µg/mL. In assay [8], this molecule displayed an equilibrium dissociation constant (Kd) of 15.8 nM, a koff of 0.00453 s⁻¹ and an association rate constant (kon) of 291000 M⁻¹ s⁻¹.

B11: PL3#7 mtIgG1 (antibody, V domains shown)
VH: B9 VH with A33P, M48I, G99S, I100R, G101D, S102G, S104A, M116L
VL: QSVVTQPPPVSGAPGQRVTISCTGSSSNIGAGYDVHWYQQLPGTAPKLLIYGNSNRPSGVPDRFSGSKSGTSASLAITGLQAEDEADYYCQTYDSSLSARVVFGGGTKLTVLG
modifications: Antibody was biotinylated (NHS-PEG4-biotin, sites not specified) for the Octet assay of Table 11.
notes: N297A mutant human IgG1
Take B11: in [9], the “EC50 (read off the curve)” value was ~0.04 µg/mL. The “Improvement over ref-1” value in assay [10] turned out to be 2.26 fold. In assay [11], this molecule gave a Kd of 1.09 nM, a koff of 0.000305 s⁻¹ and an on-rate (kon) of 298000 M⁻¹ s⁻¹.
